Data reported in article PMC8682754 (Nucleic Acids Research, 2021).
Like-named read-outs stand apart in the source and are kept apart here. Values belong to the molecule of their own block, whether it stands above or below them.

Assays:
[1] = target: SegB (Sulfolobus solfataricus); experiment: SEC
[2] = target: SegA (Sulfolobus solfataricus)
[3] = target: SegA (Sulfolobus solfataricus); experiment: SEC
SegA [4] = target: T1, SegA (Saccharolobus solfataricus, UniProt Q981B3); experiment: X-ray crystal structure; assay type: binding; settings: nucleotide pocket
T1 sequence (Q981B3 1-220): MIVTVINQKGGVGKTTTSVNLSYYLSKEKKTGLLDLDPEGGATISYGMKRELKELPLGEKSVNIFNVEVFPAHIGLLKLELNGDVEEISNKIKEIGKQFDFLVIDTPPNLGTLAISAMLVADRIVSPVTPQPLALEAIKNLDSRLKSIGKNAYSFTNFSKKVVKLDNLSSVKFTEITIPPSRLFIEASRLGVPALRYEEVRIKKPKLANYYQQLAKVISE

SegBΔ33 [5] = target: T2, SegBΔ33 (Sulfolobus solfataricus, UniProt Q981B2 34-109, del1-33); experiment: crystal structure
T2 sequence: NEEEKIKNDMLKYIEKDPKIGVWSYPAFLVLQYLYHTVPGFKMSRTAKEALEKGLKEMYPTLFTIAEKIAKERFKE

SegA [6] = target: T3, SegA (Sulfolobus solfataricus, UniProt Q981B3 1-220); experiment: fluorescence polarization
T3 sequence: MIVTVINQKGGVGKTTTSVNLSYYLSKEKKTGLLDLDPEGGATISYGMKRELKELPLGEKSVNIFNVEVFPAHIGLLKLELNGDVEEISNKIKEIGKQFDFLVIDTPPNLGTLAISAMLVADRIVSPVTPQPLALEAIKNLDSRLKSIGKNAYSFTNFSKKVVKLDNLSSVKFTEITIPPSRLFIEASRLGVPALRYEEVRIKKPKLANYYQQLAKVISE

SegA [7] = target: T3, SegA; experiment: fluorescence polarization; remark: listed apart in the source
SegA [8] = target: T3, SegA; experiment: fluorescence polarization; remark: listed apart in the source
SegA-Q131A = target: T4, SegA-Q131A (Sulfolobus solfataricus, UniProt Q981B3 1-220, Q131A); experiment: fluorescence polarization
T4 sequence: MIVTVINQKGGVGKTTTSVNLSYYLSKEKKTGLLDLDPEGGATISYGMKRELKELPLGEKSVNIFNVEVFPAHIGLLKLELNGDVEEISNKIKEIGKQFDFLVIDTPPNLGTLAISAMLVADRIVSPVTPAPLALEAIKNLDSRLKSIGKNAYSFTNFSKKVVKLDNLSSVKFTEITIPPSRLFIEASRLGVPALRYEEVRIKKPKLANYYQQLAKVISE

SegA-Q131A/F158A = target: T5, SegA-Q131A/F158A (Sulfolobus solfataricus, UniProt Q981B3 1-220, Q131A;F158A); experiment: fluorescence polarization
T5 sequence: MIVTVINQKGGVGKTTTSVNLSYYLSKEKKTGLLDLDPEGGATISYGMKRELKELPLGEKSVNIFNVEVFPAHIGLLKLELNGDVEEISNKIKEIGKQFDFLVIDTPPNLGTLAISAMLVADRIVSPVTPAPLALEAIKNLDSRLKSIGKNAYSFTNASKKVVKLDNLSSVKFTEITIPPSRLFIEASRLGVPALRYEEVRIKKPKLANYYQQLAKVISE

SegB = target: T6, SegB (Sulfolobus solfataricus, UniProt Q981B2 1-109); experiment: fluorescence polarization
T6 sequence: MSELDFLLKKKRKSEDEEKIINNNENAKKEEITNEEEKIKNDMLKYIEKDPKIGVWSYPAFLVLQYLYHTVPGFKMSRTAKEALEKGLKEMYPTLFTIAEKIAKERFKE

SegBΔ33 [9] = target: T2, SegBΔ33; experiment: fluorescence polarization
SegA-K14Q = target: T7, SegA-K14Q (Sulfolobus solfataricus, UniProt Q981B3 1-220, K14Q); experiment: fluorescence polarization
T7 sequence: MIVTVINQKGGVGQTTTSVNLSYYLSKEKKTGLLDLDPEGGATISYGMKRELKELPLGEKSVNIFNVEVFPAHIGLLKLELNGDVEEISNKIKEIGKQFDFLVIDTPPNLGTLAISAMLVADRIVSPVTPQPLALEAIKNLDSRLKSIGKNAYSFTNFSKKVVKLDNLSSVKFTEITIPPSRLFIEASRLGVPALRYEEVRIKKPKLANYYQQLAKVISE

SegA-G10V = target: T8, SegA-G10V (Sulfolobus solfataricus, UniProt Q981B3 1-220, G10V); experiment: fluorescence polarization
T8 sequence: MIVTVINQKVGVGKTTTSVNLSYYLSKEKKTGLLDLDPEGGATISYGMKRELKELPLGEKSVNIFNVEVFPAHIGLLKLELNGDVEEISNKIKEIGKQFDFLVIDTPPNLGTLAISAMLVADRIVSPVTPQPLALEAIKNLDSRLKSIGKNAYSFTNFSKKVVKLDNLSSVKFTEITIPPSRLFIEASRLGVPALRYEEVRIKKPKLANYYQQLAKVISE

stoichiometry N [1]: 2
increase of SegA ATPase activity upon addition of both SegB and S1 DNA [2]: 1000 fold
Molecule: SegB (natural protein)

stoichiometry N [3]: 2
Molecule: SegA (enzyme)

Molecule: Nc1ncnc2c1ncn2[C@@H]1O[C@H](COP(=O)(O)OP(=O)(O)NP(=O)(O)O)[C@@H](O)[C@H]1O [AMPPNP, adenosine 5′-(β,γ-imido)triphosphate]
X-ray crystal structure (SegA [4]): We observed AMPPNP inside the nucleotide binding pocket

B1: 21-bp S1 DNA (dsDNA)
DNA 1: ACGTAGAAGAGTCTAGACTGA
DNA 2: CAGTCTAGACTCTTCTACGTA
binding result (SegBΔ33 [5]): binds

B2: 24-bp nsDNA (dsDNA)
DNA 1: AGGGTGTTCCACGTGAAACAGGGA
DNA 2: TCCCTGTTTCACGTGGAACACCCT
Kd (SegA [6]): 240 nM
Kd (SegA [7]): 450 nM
Kd (SegA [8]): 710 nM

B3: 23-bp S1 DNA (dsDNA)
DNA 1: TACGTAGAAGAGTCTAGACTGAC
DNA 2: TCAGTCTAGACTCTTCTACGTAG
binding result (SegA-Q131A): no binding
binding result (SegA-Q131A/F158A): no binding
Kd (SegB): 180 nM
Kd (SegBΔ33 [9]): 280 nM
binding result (SegA-K14Q): binds
binding result (SegA-G10V): binds
